These results are taken from patent US20220073613A1 (XILIO DEVELOPMENT, published 2022).

B1: parental humanized anti-CTLA4 antibody 1 (antibody, human IgG1, kappa)
light: DIVMTQTPLSLSVTPGQPASISCRSSQSLLNSDGNTYLYWYLQKPGQSPQLLIYLVSKLGSGVPNRFSGSGSGTDFTLKISRVEAEDVGVYYCVQGTHDPWTFGGGTKVEIKRTVAAPSVFIFPPSDEQLKSGTASVVCLLNNFYPREAKVQWKVDNALQSGNSQESVTEQDSKDSTYSLSSTLTLSKADYEKHKVYACEVTHQGLSSPVTKSFNRGEC
heavy: not shown
notes: Humanized IgG1
B2: Antibody 2-7 (antibody, human IgG1, kappa)
light: ACPFPALELCGGSGGSVPLSLYSGGEIVLTQSPDFQSVTPKEKVTITCSANSALSYMYWYQQKPDQSPKLWVHGTSNLASGVPSRFSGSGSGTDFTLTINSLEAEDAATYYCHHWSNTQWTFGGGTKVEIKRTVAAPSVFIFPPSDEQLKSGTASVVCLLNNFYPREAKVQWKVDNALQSGNSQESVTEQDSKDSTYSLSSTLTLSKADYEKHKVYACEVTHQGLSSPVTKSFNRGEC
heavy: not shown
B3: parental anti-CTLA4 antibody (9D9), murine IgG2a (antibody)
light: DIVMTQTTLSLPVSLGDQASISCRSSQSIVHSNGNTYLEWYLQKPGQSPKLLIYKVSNRFSGVPDRFSGSGSGTDFTLKISRVEAEDLGVYYCFQGSHVPYTFGGGTKLEIKRADAAPTVSIFPPSSEQLTSGGASVVCFLNNFYPKDINVKWKIDGSERQNGVLNSWTDQDSKDSTYSMSSTLTLTKDEYERHNSYTCEATHKTSTSPIVKSFNRNEC
heavy: EAKLQESGPVLVKPGASVKMSCKASGYTFTDYYMNWVKQSHGKSLEWIGVINPYNGDTSYNQKFKGKATLTVDKSSSTAYMELNSLTSEDSAVYYCARYYGSWFAYWGQGTLITVSSAKTTAPSVYPLAPVCGDTTGSSVTLGCLVKGYFPEPVTLTWNSGSLSSGVHTFPAVLQSDLYTLSSSVTVTSSTWPSQSITCNVAHPASSTKVDKKIEPRGPTIKPCPPCKCPAPNLLGGPSVFIFPPKIKDVLMISLSPIVTCVVVDVSEDDPDVQISWFVNNVEVHTAQTQTHREDYNSTLRVVSALPIQHQDWMSGKEFKCKVNNKDLPAPIERTISKPKGSVRAPQVYVLPPPEEEMTKKQVTLTCMVTDFMPEDIYVEWTNNGKTELNYKNTEPVLDSDGSYFMYSKLRVEKKNWVERNSYSCSVVHEGLHNHHTTKSFSRTPGK
notes: Made at ATUM by HEK293 transient expression as murine IgG2a; reactive against murine CTLA4; also called 9D9.IgG2a; 9D9 IgG2a
B4: Antibody 2-10 (antibody, human IgG1, kappa)
light: ACPFPALELCGGGSSGGSGGSGGSGSGGEIVLTQSPDFQSVTPKEKVTITCSANSALSYMYWYQQKPDQSPKLWVHGTSNLASGVPSRFSGSGSGTDFTLTINSLEAEDAATYYCHHWSNTQWTFGGGTKVEIKRTVAAPSVFIFPPSDEQLKSGTASVVCLLNNFYPREAKVQWKVDNALQSGNSQESVTEQDSKDSTYSLSSTLTLSKADYEKHKVYACEVTHQGLSSPVTKSFNRGEC
heavy: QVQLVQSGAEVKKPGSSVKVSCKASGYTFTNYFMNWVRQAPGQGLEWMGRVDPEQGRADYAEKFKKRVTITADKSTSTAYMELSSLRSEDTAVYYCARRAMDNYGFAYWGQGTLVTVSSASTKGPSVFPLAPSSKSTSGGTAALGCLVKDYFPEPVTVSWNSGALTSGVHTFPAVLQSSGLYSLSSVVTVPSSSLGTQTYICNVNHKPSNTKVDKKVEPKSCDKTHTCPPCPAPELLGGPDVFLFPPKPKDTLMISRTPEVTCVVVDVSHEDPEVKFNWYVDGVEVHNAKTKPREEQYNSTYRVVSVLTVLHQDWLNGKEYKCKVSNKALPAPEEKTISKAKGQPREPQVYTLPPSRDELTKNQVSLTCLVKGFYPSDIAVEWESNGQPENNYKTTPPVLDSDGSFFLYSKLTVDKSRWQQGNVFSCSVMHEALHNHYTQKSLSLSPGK
notes: also called non-cleavable masked Antibody 2-10
B5: Antibody 2-14 (antibody, human IgG1, kappa)
light: ACPGKGLPSCGGGSSGGSGVPLSLYSGGEIVLTQSPDFQSVTPKEKVTITCSANSALSYMYWYQQKPDQSPKLWVHGTSNLASGVPSRFSGSGSGTDFTLTINSLEAEDAATYYCHHWSNTQWTFGGGTKVEIKRTVAAPSVFIFPPSDEQLKSGTASVVCLLNNFYPREAKVQWKVDNALQSGNSQESVTEQDSKDSTYSLSSTLTLSKADYEKHKVYACEVTHQGLSSPVTKSFNRGEC
heavy: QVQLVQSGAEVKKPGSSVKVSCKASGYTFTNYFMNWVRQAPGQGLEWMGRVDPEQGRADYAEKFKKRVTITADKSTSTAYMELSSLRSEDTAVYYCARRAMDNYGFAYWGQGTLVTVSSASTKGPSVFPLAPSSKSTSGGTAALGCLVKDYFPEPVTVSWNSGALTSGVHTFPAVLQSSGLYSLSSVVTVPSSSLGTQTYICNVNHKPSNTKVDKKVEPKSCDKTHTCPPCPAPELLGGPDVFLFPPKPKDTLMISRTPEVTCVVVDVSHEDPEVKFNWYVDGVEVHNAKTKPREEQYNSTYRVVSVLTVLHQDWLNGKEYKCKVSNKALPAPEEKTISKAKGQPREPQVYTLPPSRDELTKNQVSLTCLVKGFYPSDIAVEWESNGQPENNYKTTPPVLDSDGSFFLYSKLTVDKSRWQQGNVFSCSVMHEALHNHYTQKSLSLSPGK
B6: Antibody 2-15 (antibody, human IgG1, kappa)
light: B4 light with F4G, P5K, A6G, E8P, L9S
heavy: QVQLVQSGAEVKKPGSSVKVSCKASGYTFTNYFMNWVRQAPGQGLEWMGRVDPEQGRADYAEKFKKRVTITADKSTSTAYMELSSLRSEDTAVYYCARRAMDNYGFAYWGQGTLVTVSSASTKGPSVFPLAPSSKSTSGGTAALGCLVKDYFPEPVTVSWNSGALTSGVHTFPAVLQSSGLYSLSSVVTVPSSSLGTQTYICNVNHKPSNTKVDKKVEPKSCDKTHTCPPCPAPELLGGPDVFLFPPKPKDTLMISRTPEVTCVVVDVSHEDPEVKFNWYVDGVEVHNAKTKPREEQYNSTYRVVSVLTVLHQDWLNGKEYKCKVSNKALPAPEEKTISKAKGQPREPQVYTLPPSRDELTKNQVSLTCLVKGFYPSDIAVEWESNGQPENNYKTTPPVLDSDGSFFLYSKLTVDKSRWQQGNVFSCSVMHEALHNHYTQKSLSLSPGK
B7: Antibody 2-16 (antibody, human IgG1, kappa)
light: ACPFPALELCSSGGSGPDSGGFMLTSGGEIVLTQSPDFQSVTPKEKVTITCSANSALSYMYWYQQKPDQSPKLWVHGTSNLASGVPSRFSGSGSGTDFTLTINSLEAEDAATYYCHHWSNTQWTFGGGTKVEIKRTVAAPSVFIFPPSDEQLKSGTASVVCLLNNFYPREAKVQWKVDNALQSGNSQESVTEQDSKDSTYSLSSTLTLSKADYEKHKVYACEVTHQGLSSPVTKSFNRGEC
heavy: not shown
B8: Antibody 2-16 (colon tumor) (antibody)
heavy chain: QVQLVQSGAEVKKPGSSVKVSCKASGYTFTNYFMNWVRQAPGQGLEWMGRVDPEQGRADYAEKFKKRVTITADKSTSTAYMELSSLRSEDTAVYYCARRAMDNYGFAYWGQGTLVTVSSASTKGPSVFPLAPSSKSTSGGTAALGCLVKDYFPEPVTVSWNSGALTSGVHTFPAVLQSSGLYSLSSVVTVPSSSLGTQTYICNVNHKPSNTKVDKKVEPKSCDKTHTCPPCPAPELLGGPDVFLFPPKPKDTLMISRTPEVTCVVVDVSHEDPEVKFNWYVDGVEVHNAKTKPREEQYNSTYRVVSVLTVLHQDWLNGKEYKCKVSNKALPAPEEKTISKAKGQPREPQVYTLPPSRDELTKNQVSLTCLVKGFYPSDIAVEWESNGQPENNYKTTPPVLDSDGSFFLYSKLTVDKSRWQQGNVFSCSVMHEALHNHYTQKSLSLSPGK
light chain with masking components, cleaved: SGGEIVLTQSPDFQSVTPKEKVTITCSANSALSYMYWYQQKPDQSPKLWVHGTSNLASGVPSRFSGSGSGTDFTLTINSLEAEDAATYYCHHWSNTQWTFGGGTKVEIKRTVAAPSVFIFPPSDEQLKSGTASVVCLLNNFYPREAKVQWKVDNALQSGNSQESVTEQDSKDSTYSLSSTLTLSKADYEKHKVYACEVTHQGLSSPVTKSFNRGEC
notes: also called Antibody 2-16 after culture in colon tumor conditioned media (colon2 4 sept colon tumor sample)
B9: masking peptide CNLIVEGHC (peptide)
peptide: CNLIVEGHC
notes: Selected from the Ph.D.-C7C phage library; also called sterically occluded peptide
B10: Antibody 2-14, activated by protease (antibody)
light: EIVLTQSPDFQSVTPKEKVTITCSANSALSYMYWYQQKPDQSPKLWVHGTSNLASGVPSRFSGSGSGTDFTLTINSLEAEDAATYYCHHWSNTQWTFGGGTKVEIKRTVAAPSVFIFPPSDEQLKSGTASVVCLLNNFYPREAKVQWKVDNALQSGNSQESVTEQDSKDSTYSLSSTLTLSKADYEKHKVYACEVTHQGLSSPVTKSFNRGEC
heavy: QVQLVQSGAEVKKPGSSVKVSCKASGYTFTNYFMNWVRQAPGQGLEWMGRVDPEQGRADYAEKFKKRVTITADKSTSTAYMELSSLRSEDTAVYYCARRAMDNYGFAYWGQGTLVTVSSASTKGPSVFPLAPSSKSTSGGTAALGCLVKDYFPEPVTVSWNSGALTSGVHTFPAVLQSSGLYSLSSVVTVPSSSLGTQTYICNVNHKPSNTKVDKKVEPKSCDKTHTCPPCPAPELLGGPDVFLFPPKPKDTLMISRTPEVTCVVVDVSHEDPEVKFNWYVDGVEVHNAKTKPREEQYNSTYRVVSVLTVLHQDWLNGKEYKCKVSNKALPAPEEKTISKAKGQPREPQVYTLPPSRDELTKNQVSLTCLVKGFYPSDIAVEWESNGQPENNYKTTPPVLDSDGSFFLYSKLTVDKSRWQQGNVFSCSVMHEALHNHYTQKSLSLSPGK
notes: also called Antibody 2-14 with protease (+); not shown: remnant of the cleaved linker (part of VPLSLY and spacer SGG)
B11: Antibody 2-7 (Activated) (antibody)
light: B10 light
heavy: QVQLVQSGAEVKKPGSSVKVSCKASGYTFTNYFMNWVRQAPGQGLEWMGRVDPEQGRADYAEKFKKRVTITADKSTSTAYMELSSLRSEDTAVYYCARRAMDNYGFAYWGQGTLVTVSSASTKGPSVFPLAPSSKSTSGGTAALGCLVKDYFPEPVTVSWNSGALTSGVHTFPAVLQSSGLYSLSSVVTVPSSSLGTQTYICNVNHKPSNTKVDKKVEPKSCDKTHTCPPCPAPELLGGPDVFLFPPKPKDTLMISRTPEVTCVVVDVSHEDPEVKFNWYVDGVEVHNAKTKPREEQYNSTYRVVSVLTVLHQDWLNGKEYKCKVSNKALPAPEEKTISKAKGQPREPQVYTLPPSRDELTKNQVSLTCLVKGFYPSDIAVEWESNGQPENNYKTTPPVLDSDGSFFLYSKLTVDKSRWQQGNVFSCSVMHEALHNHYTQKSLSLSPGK
notes: also called Antibody 2-7 with protease; not shown: remnant of the cleaved linker (part of VPLSLY and spacer SGG)
B12: Antibody 2-13 (Activated) (antibody, not shown: small tags and cut ends)
light: B10 light
heavy: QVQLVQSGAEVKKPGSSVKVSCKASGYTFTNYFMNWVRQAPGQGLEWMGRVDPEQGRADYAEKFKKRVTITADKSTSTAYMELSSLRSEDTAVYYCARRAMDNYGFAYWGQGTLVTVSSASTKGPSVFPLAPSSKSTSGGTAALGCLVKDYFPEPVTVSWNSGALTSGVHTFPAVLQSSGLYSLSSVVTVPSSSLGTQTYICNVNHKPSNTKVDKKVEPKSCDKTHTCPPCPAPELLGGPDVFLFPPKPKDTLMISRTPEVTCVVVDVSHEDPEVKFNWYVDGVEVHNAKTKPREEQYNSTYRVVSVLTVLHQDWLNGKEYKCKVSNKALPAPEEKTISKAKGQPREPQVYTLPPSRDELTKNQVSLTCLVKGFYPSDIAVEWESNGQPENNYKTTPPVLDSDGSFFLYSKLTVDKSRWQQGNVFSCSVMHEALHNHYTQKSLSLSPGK
B13: Antibody 2-12 (Activated) (antibody, not shown: small tags and cut ends)
light: B10 light
heavy: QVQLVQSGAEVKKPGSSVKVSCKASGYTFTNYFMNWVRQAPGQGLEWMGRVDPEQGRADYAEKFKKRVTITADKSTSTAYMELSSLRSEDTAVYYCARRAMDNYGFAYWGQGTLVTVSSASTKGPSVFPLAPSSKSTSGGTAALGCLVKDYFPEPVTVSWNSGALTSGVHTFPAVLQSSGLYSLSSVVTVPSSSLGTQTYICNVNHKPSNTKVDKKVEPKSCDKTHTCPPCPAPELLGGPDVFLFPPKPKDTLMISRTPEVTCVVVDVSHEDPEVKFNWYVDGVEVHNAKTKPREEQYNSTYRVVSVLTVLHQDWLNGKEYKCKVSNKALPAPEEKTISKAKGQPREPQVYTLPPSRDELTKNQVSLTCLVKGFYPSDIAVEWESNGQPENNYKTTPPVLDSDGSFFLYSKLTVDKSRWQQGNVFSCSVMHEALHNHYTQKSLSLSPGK

Test [1] deals with T1, human CTLA4-Fc (R&D Systems, #7268-CT) (human, UniProt P16410 36-162).
T1 construct: Bought; not shown: Fc part
T1 sequence (P16410 36-162 limits assumed): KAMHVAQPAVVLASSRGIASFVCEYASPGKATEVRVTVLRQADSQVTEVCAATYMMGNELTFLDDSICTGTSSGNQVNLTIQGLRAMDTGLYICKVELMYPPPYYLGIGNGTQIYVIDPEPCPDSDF
The test can be described thus: ELISA: plate coated with human CTLA4-Fc (R&D Systems), detection anti-huKappa-HRP, chemiluminescence; signal as fraction of the parental antibody's RLU (Example 5).

In test [2] the target is T1, human CTLA4-Fc (R&D Systems, #7268-CT). The test can be described thus: ELISA, human CTLA4-Fc coated; protease -.
Test [3] has the same target. Description: low density antigen binding ELISA, human CTLA4-Fc coated; no protease. On the technique in general: An ELISA detects its analyte on a solid surface through an enzyme-linked reagent.
The target of test [4] is T2, murine CTLA4-Fc (R&D Systems) (murine, UniProt P09793 36-162).
T2 construct: Bought; also called muCTLA4-hsIgG (R&D Systems); not shown: human IgG Fc part (hsIgG)
Description: ELISA: plate coated with murine CTLA4-Fc (R&D Systems), detection anti-muKappa-HRP, chemiluminescence (Example 3A).

Test [5] addresses T3, muCTLA4hsIgG protein (Abcam) (murine, UniProt P09793 36-161, limits assumed).
T3 construct: Bought; also called murine CTLA4; not shown: human IgG part (hsIgG)
Description: low density antigen binding ELISA, muCTLA4hsIgG coated; average of three experiments.

For test [6], the target named is T1, human CTLA4-Fc (R&D Systems, #7268-CT). Description: CTLA4 ELISA (luminescence) after culture of the non-cleavable masked antibody in RPMI as control.
Test [7] concerns the target T4, CTLA4 coated on an MSD plate (Homo sapiens (Human), UniProt P16410 36-161).
T4 construct: not shown: The carrier of the coated recombinant CTLA4; It is probably the Fc of a CTLA4-Fc, as in the other ELISAs
The test can be described thus: binding to a CTLA4-coated MSD plate; antibody from plasma of MB49-bearing B-hCTLA4 mice 4 days after 10 mg/kg (28 % cleaved by FIG. 24D), IgG quantified by ELISA, 3-fold dilutions (Example 16).

In test [8] the target is T1, human CTLA4-Fc (R&D Systems, #7268-CT). The test can be described thus: CTLA4 ELISA (luminescence) after culture of the masked antibody in RPMI as control.
The target is the same in test [9]. Description: ELISA, human CTLA4-Fc coated; protease -. The source holds these as a separate data set.
The target in test [10] is CTLA4 on CTLA4 expressing Jurkat cells (UniProt P16410 36-223, limits assumed). Description: cell-based or functional assay.
Sequence of CTLA4 on CTLA4 expressing Jurkat cells (P16410 36-223 limits assumed): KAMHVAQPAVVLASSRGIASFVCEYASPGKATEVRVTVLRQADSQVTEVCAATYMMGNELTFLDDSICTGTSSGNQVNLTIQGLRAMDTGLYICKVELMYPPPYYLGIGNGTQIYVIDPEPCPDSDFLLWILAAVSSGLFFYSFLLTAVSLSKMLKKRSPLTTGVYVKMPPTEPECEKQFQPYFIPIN
The target in test [11] is T1, human CTLA4-Fc (R&D Systems, #7268-CT). Description: ELISA, human CTLA4-Fc coated; protease +.
Test [12] shares this target. The test can be described thus: CTLA4 ELISA (luminescence) after culture of the non-cleavable masked antibody in colon tumor conditioned media.
Test [13] shares this target. Description: CTLA4 ELISA (luminescence) after culture of Antibody 2-16 in colon tumor conditioned media; the text gives 100% of molecules cleaved.
In test [14] the target is B3. The test can be described thus: SPR, Biacore T200, 37 C; 9D9 coupled to CM5 chip, peptide as analyte; steady-state model.
Test [15] concerns the target T1, human CTLA4-Fc (R&D Systems, #7268-CT). Description: CTLA4 ELISA (luminescence) after culture of Antibody 2-14 in colon tumor conditioned media; the text gives 100% of molecules cleaved.
Test [16] has the same target. Description: low density antigen binding ELISA, human CTLA4-Fc coated; after protease digestion.
Test [17] shares this target. The test can be described thus: ELISA, human CTLA4-Fc coated; protease +. The source holds these as a separate data set.

Numbering of substitutions follows the chain as printed. Names and notes keep the numbering of the source.

T4 sequence (P16410 36-161 limits assumed): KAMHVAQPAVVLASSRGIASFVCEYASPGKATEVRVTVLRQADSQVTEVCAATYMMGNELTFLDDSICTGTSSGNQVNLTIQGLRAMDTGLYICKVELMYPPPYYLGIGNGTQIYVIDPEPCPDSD

For orientation: EC50 (read off the curve) means the concentration at which the effect is half-maximal. On to B1, for which the “EC50 (read off the curve)” value in test [1] is roughly 0.7 nM.

As a reminder, the EC50 is the concentration that produces a half-maximal response. As to B2, the EC50 in test [2] and in test [3] was 33.9 nM each time.

With B3, the “EC50 (read off the curve)” value in test [4] is roughly 0.2 nM. The molecule further displayed an EC50 in test [5] of 0.31 nM.

For B4, the EC50 in test [2] and in test [3] was 29.4 nM throughout. Further, the “EC50 (read off the curve)” value in test [6] was roughly 8 nM.

With B5, the “EC50 (read off the curve)” value in [7] was roughly 20 ng/mL; in test [8], roughly 10 nM. For the same molecule, in test [9], the response was half-maximal at 39.4 nM (EC50). The “EC50 of FcγRIIIa (ADCC) reporter activation, without protease” value in test [10] came out at 33 ng/mL.

Consider B6, for which the EC50 was 17.3 nM in [11] and 24.3 nM in test [9]. In addition, the “EC50 of FcγRIIIa (ADCC) reporter activation, after exposure to protease” value in [10] was determined as 10 ng/mL. In addition, the “EC50 of FcγRIIIa (ADCC) reporter activation, without protease” value in test [10] is 19 ng/mL. For the same molecule, the “EC50 (read off the curve)” value in test [12] was roughly 8 nM; in test [6], roughly 7 nM.

As to B7, the “EC50 (read off the curve)” value in test [8] is roughly 6 nM.

B8: the “EC50 (read off the curve)” value in test [13] is roughly 0.4 nM.

A word on the Kd: it is the constant that tells how readily two partners part at equilibrium. B9: the Kd in [14] is 11000 nM.

In the case of B10, in test [11], the EC50 was found to be 0.41 nM. Besides, the “EC50 (read off the curve)” value in test [15] was roughly 0.4 nM. The “EC50 of FcγRIIIa (ADCC) reporter activation, after exposure to protease” value in test [10] worked out at 0.0028 ng/mL.

As for B11, the EC50 in [16] and in test [17] was 0.58 nM in each case.

Take B12: the response in [16] was half-maximal at 0.57 nM (EC50).

For the molecule B13, in [16], the EC50 was 0.62 nM.
